# Measured values taken from patent US20050215629.
# Test system: synthetic phosphotyrosine peptide Arg-Arg-Leu-Ile-Glu-Asp-Ala-Glu-Tyr-Ala-Ala-Arg-Gly, wherein the tyrosine is phosphorylated
Substance,"PTPase activity (malachite green, absorbance at 660 nm)",in vitro PTPase assay
GST fusion protein of mitogen-activated protein kinase phosphatase 1 (MKP1),660 nm absorbance approximately 0.6 above background (0.03),
GST fusion protein of SHP-1 catalytic domain (SHP-1cata),,the two proteins in their dephosphorylation of the phosphotyrosine peptide substrate in vitro
GST fusion protein of SHP-2,660 nm absorbance approximately 0.6 above background (0.03),
GST fusion protein of protein tyrosine phosphatase 1B (PTP1B),660 nm absorbance approximately 0.6 above background (0.03),
GST fusion protein of SHP-1,660 nm absorbance approximately 0.6 above background (0.03),
